This passage reports EC50 (read off the curve) results from patent US20210214454A1.

Experiment [1] concerns the target human CD40 protein expressed on cells (human) (UniProt P25942). The experiment is described as follows: flow cytometry on CHO-S cells transiently expressing human CD40; AF647 anti-human IgG (H+L) secondary; GeoMean RL1-H. (In general: Flow cytometry measures light scatter and fluorescence of single cells or particles in a stream.)
Experiment [2] deals with cynomolgus CD40 protein expressed on CHO-S cells (cynomolgus) (UniProt G7PG38). The experiment is described as follows: flow cytometry on CHO-S cells transiently expressing cynomolgus CD40; AF647 anti-human IgG (H+L) secondary; GeoMean RL1-H.

human CD40 protein expressed on cells (human), sequence (P25942 21-277 limits assumed): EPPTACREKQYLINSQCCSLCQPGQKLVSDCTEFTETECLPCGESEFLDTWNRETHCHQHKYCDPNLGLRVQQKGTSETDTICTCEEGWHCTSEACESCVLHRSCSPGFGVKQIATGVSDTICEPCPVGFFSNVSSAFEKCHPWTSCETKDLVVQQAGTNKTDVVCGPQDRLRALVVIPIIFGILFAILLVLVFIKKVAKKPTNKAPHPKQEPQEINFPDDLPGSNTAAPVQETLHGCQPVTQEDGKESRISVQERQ

Take selicrelumab analogue (antibody): the EC50 (read off the curve) (in general, the concentration needed to bring the measured effect to its halfway point) in experiment [1] is 0.07 µg/mL; in experiment [2], 0.08 µg/mL.
